Experimental data: patent US20260085129A1 (ECO ANIMAL HEALTH, published 2026)

Tests used:
[1] = target: T1, pCD163-SRCR-FL-PST2-His (porcine, UniProt Q2VL90 51-1044); experiment: Biacore 3000 SPR, antigen amine-coupled on CM5 chip, VHH 200-12.5 nM, pH 7.4, 1:1 binding with mass transfer
T1 construct: also called pCD163-1-PST2-His; pCD163-SRCR1-PST2; not shown: His tag
T1 sequence: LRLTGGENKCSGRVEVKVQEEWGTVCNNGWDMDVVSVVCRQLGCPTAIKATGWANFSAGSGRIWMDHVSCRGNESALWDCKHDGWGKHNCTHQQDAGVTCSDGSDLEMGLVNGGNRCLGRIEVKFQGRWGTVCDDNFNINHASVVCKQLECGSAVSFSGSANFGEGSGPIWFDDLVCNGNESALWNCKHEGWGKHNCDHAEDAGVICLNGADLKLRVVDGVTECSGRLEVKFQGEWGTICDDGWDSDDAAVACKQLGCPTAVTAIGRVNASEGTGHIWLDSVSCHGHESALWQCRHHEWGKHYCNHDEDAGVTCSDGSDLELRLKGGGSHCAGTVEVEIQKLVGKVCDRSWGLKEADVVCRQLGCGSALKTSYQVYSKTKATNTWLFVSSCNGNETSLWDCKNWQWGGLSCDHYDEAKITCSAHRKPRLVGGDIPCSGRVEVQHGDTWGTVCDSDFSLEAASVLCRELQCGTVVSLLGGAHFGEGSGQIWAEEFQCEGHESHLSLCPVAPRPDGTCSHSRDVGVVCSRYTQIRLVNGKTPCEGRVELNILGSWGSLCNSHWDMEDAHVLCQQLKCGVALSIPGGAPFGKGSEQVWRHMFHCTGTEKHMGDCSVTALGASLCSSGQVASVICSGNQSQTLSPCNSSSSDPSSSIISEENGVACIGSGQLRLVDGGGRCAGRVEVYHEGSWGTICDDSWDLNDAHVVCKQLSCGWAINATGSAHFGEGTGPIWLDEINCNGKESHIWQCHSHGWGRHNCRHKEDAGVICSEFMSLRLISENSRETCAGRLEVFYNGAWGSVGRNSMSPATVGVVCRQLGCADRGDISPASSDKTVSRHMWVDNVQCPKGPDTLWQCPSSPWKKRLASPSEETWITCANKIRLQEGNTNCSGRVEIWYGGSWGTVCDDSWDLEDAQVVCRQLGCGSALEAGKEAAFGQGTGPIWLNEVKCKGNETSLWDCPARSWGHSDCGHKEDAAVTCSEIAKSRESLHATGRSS
Method: Surface plasmon resonance (SPR) (Biacore 3000, GE Healthcare) was used to determine the binding kinetics of selected single domain antibodies at pH7.4. Approximately 2075 to 2423 RUs of pCD163-SRCR1-9-huFc or 2859 to 3286 RUs of pCD163-1-PST2-His. respectively, at 20 or 30 μg/ml in Acetate buffer pH 5.0 or pH 5.5 were immobilized onto a CM5 chip using the standard amine coupling procedure.
1×HBS-EP pH 7.4, was utilized as a running buffer during binding kinetic measurements. Purified VHH were injected at 2-fold dilution from 200 nM down to 12.5 nM in HBS-EP pH 7.4, at 30 μl/min for 2 minutes, followed by an off-rate wash for 1 min between injections. Off-rate wash was 300s after the last concentration injection in each cycle. RU levels were restored to base levels after regeneration with two injections of 10 μl of 1 M NaCl, 1 mM Glycine pH 1.5 between samples.
Fitting 1:1 binding with mass transfer was applied to the set of sample curves using the simultaneous fitting option of the BIAevaluation software to calculate the kinetic constants of the antibody-antigen interactions including association rate (ka), dissociation rate (kd) and affinity (KD). Curves were removed from the fitting after visual examination of the residuals and considering the value of Chi2: a minimum of 4 curves were considered for the simultaneous fitting.

[2] = target: T2, porcine CD163 with deletion of SRCR domain 5, on pPAMΔ5 cells (porcine, UniProt Q2VL90 47-1115); experiment: P.E. binding FACS on pPAMΔ5 cells
T2 construct: also called pPAMΔ5 domain cells; pPAMΔ5 WT cells
T2 sequence: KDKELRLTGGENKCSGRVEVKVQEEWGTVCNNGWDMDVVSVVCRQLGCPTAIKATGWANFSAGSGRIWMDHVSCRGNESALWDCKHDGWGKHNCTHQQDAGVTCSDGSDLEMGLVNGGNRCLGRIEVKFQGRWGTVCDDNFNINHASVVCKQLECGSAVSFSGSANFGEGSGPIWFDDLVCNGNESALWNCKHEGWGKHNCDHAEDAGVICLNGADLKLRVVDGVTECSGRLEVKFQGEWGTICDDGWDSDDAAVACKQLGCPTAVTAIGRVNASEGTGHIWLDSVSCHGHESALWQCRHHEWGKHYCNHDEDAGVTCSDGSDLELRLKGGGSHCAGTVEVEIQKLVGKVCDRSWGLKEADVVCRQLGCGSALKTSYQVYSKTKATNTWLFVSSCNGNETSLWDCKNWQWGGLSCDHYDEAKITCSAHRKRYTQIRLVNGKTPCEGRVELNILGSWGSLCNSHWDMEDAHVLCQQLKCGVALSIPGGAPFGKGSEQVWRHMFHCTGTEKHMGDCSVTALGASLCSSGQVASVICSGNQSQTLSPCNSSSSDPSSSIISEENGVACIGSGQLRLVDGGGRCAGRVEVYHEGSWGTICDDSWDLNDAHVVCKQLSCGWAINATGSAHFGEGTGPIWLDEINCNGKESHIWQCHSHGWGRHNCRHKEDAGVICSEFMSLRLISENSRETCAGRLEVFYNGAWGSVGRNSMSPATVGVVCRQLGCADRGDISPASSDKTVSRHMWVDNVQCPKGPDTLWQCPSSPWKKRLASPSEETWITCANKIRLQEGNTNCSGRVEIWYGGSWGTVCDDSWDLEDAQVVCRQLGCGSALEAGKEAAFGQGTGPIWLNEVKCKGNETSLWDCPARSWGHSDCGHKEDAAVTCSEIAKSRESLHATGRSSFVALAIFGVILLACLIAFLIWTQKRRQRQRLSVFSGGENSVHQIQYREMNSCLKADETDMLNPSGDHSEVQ
Method: Periplasmic Extract (P.E) from the selected clones were incubated with anti-c-myc antibody (Roche; Cat. nr. 11667203001), specific to the c-myc tag present in the soluble VHH, for 30 minutes with agitation at room temperature (RT). The mix (P.E+anti-c-myc antibody) was added to the pPAM WT or pPAMΔ5 domain (cells with deletion of SRCR domain 5) and incubated for 60 min at 4° C. with gentle shaking.
Cells were washed 3× with 150 μl/well of FACS Buffer and incubated with 50 μl/well of the secondary antibody GAM-APC for 30 min at 4° C. and protected from the light, with shaking.

B1: Clone 39-H17B11 VHH antibody (VHH)
VHH: QVQLVESGGGLVQAGGSLRLSCAASGRTFSSYAMGWFRQTPGKDREFVARIGWTGGTTIYADSVKGRFTISRDNAKNTVYLQMNSLKPEDTAVYYCAADQAGWRTAGVRNTYEYDYWGQGTQVTVSS
notes: Llama single domain antibody; also called clone 17B11; not shown: tags: c-myc tag on the soluble VHH in periplasmic extracts; FLAG and His tags on the purified VHH
In the case of B1, the Kd [1] is reported as 255 µM, the koff [1] is reported as 0.281 s⁻¹ and the kon [1] is reported as 1100 M⁻¹ s⁻¹. B1: no binding [2].
